A protein production outcome set (Wang et al. 2014)

Test: label from the status in PepcDB records

Sequence	protein production
MSQKQEEENPAEETGEEKQDTQEKEGILPERAEEAKLKAKYPSLGQKPGGSDFLMKRLQKGQKYFDSGDYNMAKAKMKNKQLPSAGPDKNLVTGDHIPTPQDLPQRKSSLVTSKLAGGQVE	failed
MSQQKHADQDYALETVPSESKKGFLPMFAIMLGFTFFSASMWAGGTIGTGLKFQTFLLAVLMGNLLLGLYTGALAYIGSSTGLSTHLLARYSFGEKGSYLASFILAITQVGWFGVGVAMFSLPVHYATGIDLNILLLLSGILMTTTAYFGIKSLTVLSMISVPAITLLGIYSVTGAVNSIGGISELFAIEPANNLGLAVGLSLCIGSFISGGTLTPDFSRFSKSKSIGVISTFIAFFIGNSLMFIFGAVGASTLGQSDISEVMLKQGLIIPAIIILGLNIWTTNDNALYASGLGFSNITKIPKKHVVIFNGLIGTLGALVLYNNFVGWLTLLSSIIPSIGGIIISDYFINKRQKYASLENIKVKKVHWNAVIAWVLGVFASQFLPGISPINAVFGSAIIYIVLETLKKNNI	failed
MSQQNTELEGIGKLRSGSLFMILAVLLAAIGILVIISAGMLGGMFSAASGNVSGVIASGIGLLVGIAIVILIGAIIGLIGILRIRSGFGILKSLGRDVGIGEIGTTLYLVGLIIIIIGALLTIVLIGFPILILGEIIALIGGILIGIGFYKVGEIYNEGLVKIGGILIVIPIDLINFVGFILAYVGLGKVRPLPTVAQQPLVPQVYQVGQGTIRNNGYAYITLYSSTPASIISAKIEGANIMSSAINPTVLQIGNNEVTIFFGNVQSLAPNTTYIITLTINIGGNIINISTTAVYQP	failed
MSQTEPPEDLMQYEAMAQDALRGVVKAALKKAAAPGGLPEPHHLYITFKTKAAGVSGPQDLLSKYPDEMTIVLQHQYWDLAPGETFFSVTLKFGGQPKRLSVPYAALTRFYDPSVQFALQFSAPEIIEDEPEPDPEPEDKANQGASGDEGPKIVSLDQFRKKLEHHHHHH	not failed
MSQTKIEWADKVWNPVSGCTKISEGCQNCYAERMSKRLAGRCGYPAEEPFKVTPHPEKLGEPLKWRKPLRIFVNSMSDLFHADVPDKFIINVLSMIAEASHHTFLILTKRPERMRELLNHDTIANDVWLQTSRGVNAERSPWPLPNLWLGVSAENQAAADERIPILLQTPAAVRFVSVEPMLSEVNLSRYLKRPICKHWGRNGDPNIYGRYFWGKQALVGAGWVGIDWVICGGETGPGARPMHPVWVRDLRDQCRVAGTPFFFKSFGEYVRVGECMNEEDDEEFYSKSSAAGTNVQRLNLQGGMGYHGPKSIYMQRIGKKRAGRELDGRTWEEFPLEHHHHHH	failed
MSQTRDLQGGKAFGLLKAQQEERLDEINKQFLDDPKYSSDEDLPSKLEGFKEKYMEFDLNGNGDIDIMSLKRMLEKLGVPKTHLELKKLIGEVSSGSGETFSYPDFLRMMLGKRSAILKMILMYEEKAREKEKPTGPPAKKAISELP	failed
MSQVSIIIPTLNEAASLGRTLRQLTLLNPPAKEVIVVDGGSEDETIAIAKQNFESFRQATGVQVIFCERRGRSVQMNYGALSATGDILCFLHADTWVPDDLVAVIEKTLAETKVSCGGFISLMTGSQTTRWGISLHNYLKTYYAPLLFKPHLFFQGLRLLFGDQVMFCRRNDFWDCGGFNEELPIMEDGDLCLKLVQKGRIALVNRIVQSSDRRVARWGSWKATAIYLYIGVLWGIGVDANYLKQFYQDIRLEHHHHHH	not failed
MSQVSTEFIPTRIAILTVSNRRGEEDDTSGHYLRDSAQEAGHHVVDKAIVKENRYAIRAQVSAWIASDDVQVVLITGGTGLTEGDQAPEALLPLFDREVEGFGEVFRMLSFEEIGTSTLQSRAVAGVANKTLIFAMPGSTKACRTAWENIIAPQLDARTRPCNFHPHLKK	not failed
MSRAANKLTNTAIKNATTEGKAQRKLADGGGLTLVVKPESKVWWLRYRYDGKERTLTLGAYPQTSLKEARAKRDEAKQLLAEGIDPVTHRATHKTKRVEATANTFKAVATEWLKEVHQKAVVEEHYNRNVRRLEQHAFPKLGRRPISEIEPSDILEPLRDIAKTGRRETAKRVKTLIGQVFRYTVSTGRAQRDMTADIRGILPASETKHHAAVVKPDEIADLLKRIDTYWGTPTVCMALELSPLLFLRPGELRTMKWEQIDWDDATWTTERTKNGEPLVVPLARQSIELLSQIQEVNGKWEWVFPGGHSKTKPMSNNAIRTALTRLELHGIMSAHGFRAMARTVLTERLGFRA	failed
MSRADDVANLFQRFGASSDGYLETDNSLDYQESSVSSTPSVALQRATSQPSIEQPCAEQSAQNNAPAPDSITPDKTRRIAADTLAKLLAEAVQAREAEAQARNNEALAQSMGKEQLSRTPAHVIAVVSAKGGVGKSTLSAALTSLVKVPGGQTLAIDLDPQDALQHHLNASPDVAGLGGASLSGENWRALLLNGSADADTQLLAYGSLQLDERRSLERFQESDAHWLVRQIARMQLSARDVVILDVPCGDLLMLEQALNAASQVLVVLTADAACYLTLDQMQGWLEPVLAGPQPPVCHYVINQFDASRTFSRDMRDVMAKRLGGRLLGIVHKDNALAEALAYGHNAVQVPSASPGTQDLRVLSHLLITKLLTQDVEETRLS	failed
MSRARSLFPEMSDFFAGLPSWASIRPVFGDHIIRIEDEMKDGGYELRAEVPGIDPAKDIDITVRDGVLTIKAERTEKKETNGRSEFAYGSFMRSVTLPPGADEDAIKAGYDKGILTISVPVTEPEAAAEKRVAVETVSPLEHHHHHH	failed
MSRDRLYTWAGLWRSPSSSWEALRLEDDQAESQLRAPDERSGLPYQLDYRLRWDADWHLREAVFHVESETGVRKLHLLADGRGHWQDGDGEALPAFDGCLDIDIWPSPFTNTFPIRRLGLADGQRAEIRALYIEAPALEPRSMRQAYTRLDASHYLYENLEGSAFKAVLLVDEQGLVIDYPGLFQRL	not failed
MSREKIEANREKILNGPIVPTLLVLAYPIIINQLVHVLYNLTDTFWLGKLGRIELSAPGTAWPLVWFLMSIGSGFVVAGFAFVSQYIGAGDYEKANRYAGALYSLLLIFATGMSIFGIVLAPYFLRFMKVSETIFPYALTYTRIIFAGIPFSFTLFAFNFLLRAIGDTKTPVKINIGTIILNIILDPFFIFGWGPFPRLGVAGAAIATMLSNSVGSLIGGYLLFTGKVGIHLTLENLKPDLKFYSRIFRVGLPSSIGDSTSALGFVVLTRVIFTVGRIYGEAHGIKGYEDVAFPTYSITNRLTNFMFAFSDGISMAMGTMVGQNIGARKYERAKEIAEKAMLINFTILSIGTLLFAIFRVPIFKFFVNDPMVIAESKKVVMYFSASLPFFGIFSAVNQVFNSAGHTKKSMVLGIIRLWILRIPLSYWLGVAMKDTAGMWLGMGLSNVIGALIGLAWFLKGSWLRGVIEEHH	failed
MSRFRSLLQASVNATKKALTWNVEEWVPPAEKHIFKFHSKEDLKKWHLYSDSEYGGLSSASLEIPDKGDGSDCTGVFSGNLSVDLSEGSKWNISRSGFCGMRSKKFDGFIDLDGYDAIALRIRGDGRCYISTIYTENWVNSPGQSEDNSWQAFVFAPKDSWYTAKIPLARYLPTWRGNVIDVEMEMNPGRVLGMSLSVNAEGGAVGAKSGAGDFRVEIDWIKALRLP	failed
MSRKPRYSLALEVEPANPNEAYRHYMKKLSYETDIADLSIDIKKGYEGIIVVDVRDAEAYKECHIPTAISIPGNKINEDTTKRLSKEKVIITYCWGPACNGATKAAAKFAQLGFRVKELIGGIEYWRKENGEVEGTLGAKADLFWNMKKESKNKKSLDGSTQ	failed
MSRKYFVGGNFKCNGTKESLKTLIDSFKQVESSNSEVYVFPTSLHISLVKEFFGNDHPGVFKIGSQNISCTGNGAFTGEVSCEMLKDMDVDCSLVGHSERRQYYSETDQIVNNKVKKGLENGLKIVLCIGESLSERETGKTNDVIQKQLTEALKDVSDLSNLVIAYEPIWAIGTGVVATPGQAQEAHAFIREYVTRMYNPQVSSNLRIIYGGSVTPDNCNELIKCADIDGFLVGGASLKPTFAKIIESAQ	not failed
